Assay results: patent US20150376294A1 (RIGSHOSPITALET, published 2015)
Changes are numbered by the printed parent chain. Blank lines part the entries; values can stand above or below the binder they belong to.

How the values were obtained:
[1] = target: N343 (from amino acid 343 to the C-terminus) (human, UniProt Q9Y2J8 343-665); assay: western blotting
Description: (§1) Different samples were loaded in gels (same procedure as SDS-PAGE) along with a pre-stained marker. […] The membrane was blocked in wash buffer and sliced into strips. Antibody culture supernatant (2 mL) was added 1:1 in diluting buffer and incubated 0/N at 4° C. HRP-conjugated rabbit anti mouse IgG was added 1:3000 followed by incubation 1 h/RT. Finally, the strips were washed, incubated 10 min in acetate buffer (50 mM CH3COOH, 33.75 mM NaOH, pH 5.0) and stained in carbazole staining solution (0.04% 3-amino-9-ethylcarbazole and 0.015% H2O2) in acetate buffer. Antibodies with affinity against the target protein were observed as red bands, and the approximate size could be held against the marker loaded on the gel.
(§2) Different splice variants of PAD2 were evaluated by western blotting.

[2] = target: T1, N165 (from amino acid 165 to the C-terminus) (human, UniProt Q9Y2J8 165-665); assay: western blotting
T1 construct: also called N165 splice variant
T1 sequence (Q9Y2J8 165-665): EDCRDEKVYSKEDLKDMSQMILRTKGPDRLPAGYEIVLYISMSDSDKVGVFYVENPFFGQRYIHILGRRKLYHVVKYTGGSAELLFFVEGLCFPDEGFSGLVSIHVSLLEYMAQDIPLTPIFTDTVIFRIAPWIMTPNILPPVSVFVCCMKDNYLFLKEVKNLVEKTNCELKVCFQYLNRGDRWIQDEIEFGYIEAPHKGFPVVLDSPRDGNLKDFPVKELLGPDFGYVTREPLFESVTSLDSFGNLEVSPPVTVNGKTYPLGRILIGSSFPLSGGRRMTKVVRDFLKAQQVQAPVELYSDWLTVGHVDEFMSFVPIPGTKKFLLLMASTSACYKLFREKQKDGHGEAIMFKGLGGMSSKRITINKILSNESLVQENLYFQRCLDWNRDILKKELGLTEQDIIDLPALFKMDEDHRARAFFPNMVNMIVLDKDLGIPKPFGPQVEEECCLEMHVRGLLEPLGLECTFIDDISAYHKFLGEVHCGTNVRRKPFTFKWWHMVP
Description: as §1, §2

[3] = target: T2, Peptidylarginine Deiminase isolated from rabbit skeletal muscle (rPAD2) (rabbit, UniProt P20717 1-665 (rat entry), limits assumed); assay: western blotting, rPAD2
T2 construct: Bought (Sigma-Aldrich), isolated from rabbit skeletal muscle; also called Rabbit PAD2; rabbit PAD2
T2 chain: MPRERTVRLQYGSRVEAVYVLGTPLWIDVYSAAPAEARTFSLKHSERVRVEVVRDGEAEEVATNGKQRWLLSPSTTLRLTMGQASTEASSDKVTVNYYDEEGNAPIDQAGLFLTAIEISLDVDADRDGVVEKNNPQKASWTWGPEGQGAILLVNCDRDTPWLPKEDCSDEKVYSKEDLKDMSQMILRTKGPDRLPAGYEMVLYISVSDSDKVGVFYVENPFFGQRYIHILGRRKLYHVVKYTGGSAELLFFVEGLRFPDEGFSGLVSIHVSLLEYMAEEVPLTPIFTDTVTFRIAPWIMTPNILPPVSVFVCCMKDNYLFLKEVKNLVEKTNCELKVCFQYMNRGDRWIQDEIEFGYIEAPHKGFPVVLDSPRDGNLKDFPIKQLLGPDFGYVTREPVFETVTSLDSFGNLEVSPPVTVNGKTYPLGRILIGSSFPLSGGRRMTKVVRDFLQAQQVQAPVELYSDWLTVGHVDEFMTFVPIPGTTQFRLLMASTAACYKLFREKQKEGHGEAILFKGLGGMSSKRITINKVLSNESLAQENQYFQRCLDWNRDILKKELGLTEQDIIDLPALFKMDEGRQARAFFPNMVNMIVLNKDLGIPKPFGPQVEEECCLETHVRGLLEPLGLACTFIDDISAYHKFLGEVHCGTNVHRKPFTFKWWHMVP
Description: FIG. 2. mAbs (monoclonal antibodies) reacting with rPAD2 in western blotting. Culture supernatants from mAbs #1-30, an irrelevant mAb (A) and no mAb (B) were tested 1:1 in diluting buffer against 1 μg/mL rabbit PAD2-unreduced. Rabbit anti mouse IgG (diluted 1:1000) was added, 1 h/RT. Development was performed in carbazole staining solution. Molecular weight markers (kDa) are indicated in the middle of the blot with Novex® Sharp Pre stained Protein Standard. A 4-12% Bis-Tris zoom gel was used.
as §1

[4] = target: T3, human recombinant PAD4 (hrPAD4) (human, UniProt Q9UM07 1-663); assay: indirect ELISA, hrPAD4 coat 50 ng/mL
T3 construct: Recombinant, provided by Ger Pruijn; also called hPAD4; human PAD4
T3 sequence (Q9UM07 whole entry): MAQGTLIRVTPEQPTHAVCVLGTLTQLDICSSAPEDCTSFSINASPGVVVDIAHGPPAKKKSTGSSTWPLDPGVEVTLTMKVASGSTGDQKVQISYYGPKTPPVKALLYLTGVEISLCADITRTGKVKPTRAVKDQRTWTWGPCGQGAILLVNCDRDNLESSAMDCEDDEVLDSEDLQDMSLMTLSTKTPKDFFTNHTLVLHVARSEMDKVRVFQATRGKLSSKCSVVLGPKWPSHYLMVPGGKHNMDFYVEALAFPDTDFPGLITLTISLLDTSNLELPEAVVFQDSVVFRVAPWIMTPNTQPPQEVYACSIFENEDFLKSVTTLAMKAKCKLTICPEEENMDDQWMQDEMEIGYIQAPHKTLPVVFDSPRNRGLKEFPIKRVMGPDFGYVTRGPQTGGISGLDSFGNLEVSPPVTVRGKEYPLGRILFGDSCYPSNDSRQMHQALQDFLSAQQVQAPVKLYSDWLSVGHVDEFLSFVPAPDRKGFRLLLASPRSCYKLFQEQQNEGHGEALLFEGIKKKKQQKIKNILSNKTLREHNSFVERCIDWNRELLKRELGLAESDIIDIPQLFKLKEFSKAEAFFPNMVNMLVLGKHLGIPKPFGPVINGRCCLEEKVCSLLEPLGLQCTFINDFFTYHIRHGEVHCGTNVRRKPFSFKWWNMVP

N343 (from amino acid 343 to the C-terminus), sequence (Q9Y2J8 343-665): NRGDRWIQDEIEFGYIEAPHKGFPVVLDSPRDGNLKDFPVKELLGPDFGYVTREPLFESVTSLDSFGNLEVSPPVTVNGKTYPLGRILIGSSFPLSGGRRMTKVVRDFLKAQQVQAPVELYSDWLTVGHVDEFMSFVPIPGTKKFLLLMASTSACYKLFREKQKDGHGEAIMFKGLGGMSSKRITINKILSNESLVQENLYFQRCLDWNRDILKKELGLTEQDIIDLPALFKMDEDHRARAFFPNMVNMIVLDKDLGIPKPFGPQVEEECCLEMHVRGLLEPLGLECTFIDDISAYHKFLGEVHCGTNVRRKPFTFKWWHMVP

- binding result [1]: no binding
- binding result [2]: no binding
- binding result [3]: binds
- binding result [4]: no binding
B1: mAb #2 (antibody, V domains shown)
VH: QVQLQQPGAELVRPGASVKLSCKASGYTFTSYWMNWVKQRPGQGLEWIGMIDPSDSESYYNQMFKDKATLTVDKSSSTAYMQLSRLTSEDSAVYYCARKDYYAYGGAMDYWGQGTSVTVSS
VL: QIVLTQSPAILSASLGEEITLTCSANSSARYMHWYQQKSGTSPKLLIYSTSNLASGVPSRFSGSGSGTFYSLTLSSVEAEDAADYYCHQWSGYPTFGGGTKLEIKR
notes: Mouse IgG monoclonal antibody, unknown subtype; raised against rabbit PAD2

- binding result [1]: no binding
- binding result [4]: no binding
B2: mAb #6 (antibody, V domains shown)
VH: EVQLQQSGPDLVKPGASVKISCKASGYSFTAYYMHWVKQSHGESLEWIGRVNPNNGGSSYNQKFKGKAILTVHKSSNTAYMELRSLTSEDSAVYFCARGDYLPSLGYWGQGTSVTVSS
VL: DIVMTQSQKFMSTSVGDRVSVTCKASQNVDTTVAWYQQKPGQSPKALIYSASYRYSGVPDRFTGSGSGTDFTLTVTNVQSEDLAEYFCQQYDSYPFTFGSGTKLEIK
notes: as for B1

- binding result [1]: no binding
- binding result [4]: no binding
B3: mAb #34 (antibody, V domains shown)
VH: EVQLQQSGPDLVKPGASVKISCKASGYSFTSYYMHWVKQSHGKSLEWIGRVNPNSGYTTYNQKFKGKAILTVDKSSSTAYMELRSLTSEDSAVYYCARGDYLPSMDYWGHGTSVTVSS
VL: B2 VL with I2F, V21I, D30G, T32N, A46G, V75I, T76S, Y91F, D92N
notes: as for B1
